Test results published in publication PMC7367873, “Dissecting the sequence determinants for dephosphorylation by the catalytic subunits of phosphatases PP1 and PP2A” (Nature Communications, 2020).
One block for each molecule: values may come before it.

How the values were obtained:
[1] = tested on: GFP-14-3-3β and its binding proteins; assay: GFP-14-3-3β co-IP with LC-MS/MS label-free quantification, untreated versus PP1c-treated; design: species or system human; settings: 3 replicates each
GFP-14-3-3β = GFP-14-3-3β co-IP with LC-MS/MS, untreated GFP-14-3-3β versus GFP control (14-3-3 interactome); type: binding, human; settings: 3 replicates each
[2] = PP1 vs untreated, LFQ intensities
[3] = untreated vs GFP, LFQ intensities

Difference (log2), PP1 vs untreated ([1]; log2 difference, pairwise comparison PP1 vs untreated, label-free quantification): 2.113
B2: OASL (protein, UniProt Q15646 2-514, looked up)
2'-5'-oligoadenylate …: ALMQELYSTPASRLDSFVAQWLQPHREWKEEVLDAVRTVEEFLRQEHFQGKRGLDQDVRVLKVVKVGSFGNGTVLRSTREVELVAFLSCFHSFQEAAKHHKDVLRLIWKTMWQSQDLLDLGLEDLRMEQRVPDALVFTIQTRGTAEPITVTIVPAYRALGPSLPNSQPPPEVYVSLIKACGGPGNFCPSFSELQRNFVKHRPTKLKSLLRLVKHWYQQYVKARSPRANLPPLYALELLTIYAWEMGTEEDENFMLDEGFTTVMDLLLEYEVICIYWTKYYTLHNAIIEDCVRKQLKKERPIILDPADPTLNVAEGYRWDIVAQRASQCLKQDCCYDNRENPISSWNVKRARDIHLTVEQRGYPDFNLIVNPYEPIRKVKEKIRRTRGYSGLQRLSFQVPGSERQLLSSRCSLAKYGIFSHTHIYLLETIPSEIQVFVKNPDGGSYAYAINPNSFILGLKQQIEDQQGLPKKQQQLEFQGQVLQDWLGLGIYGIQDSDTLILSKKKGEALFPAS
Difference (log2), untreated vs GFP (GFP-14-3-3β; log2 difference, pairwise comparison untreated vs GFP, label-free quantification): -1.1672

Difference (log2), PP1 vs untreated [1, 2]: 0.5248 log2
B5: FUBP3 (protein, UniProt Q96I24 2-572, looked up)
Far upstream element-binding …: AELVQGQSAPVGMKAEGFVDALHRVRQIAAKIDSIPHLNNSTPLVDPSVYGYGVQKRPLDDGVGNQLGALVHQRTVITEEFKVPDKMVGFIIGRGGEQISRIQAESGCKIQIASESSGIPERPCVLTGTPESIEQAKRLLGQIVDRCRNGPGFHNDIDSNSTIQEILIPASKVGLVIGRGGETIKQLQERTGVKMVMIQDGPLPTGADKPLRITGDAFKVQQAREMVLEIIREKDQADFRGVRGDFNSRMGGGSIEVSVPRFAVGIVIGRNGEMIKKIQNDAGVRIQFKPDDGISPERAAQVMGPPDRCQHAAHIISELILTAQERDGFGGLAAARGRGRGRGDWSVGAPGGVQEITYTVPADKCGLVIGKGGENIKSINQQSGAHVELQRNPPPNSDPNLRRFTIRGVPQQIEVARQLIDEKVGGTNLGAPGAFGQSPFSQPPAPPHQNTFPPRSSGCFPNMAAKVNGNPHSTPVSGPPAFLTQGWGSTYQAWQQPTQQVPSQQSQPQSSQPNYSKAWEDYYKKQSHAASAAPQASSPPDYTMAWAEYYRQQVAFYGQTLGQAQAHSQEQ
Difference (log2), untreated vs GFP (GFP-14-3-3β; [3]): 0.3039 log2

Difference (log2), PP1 vs untreated [1, 2]: 0.4916 log2
B7: PKP2 (protein, UniProt Q99959 1-881, looked up)
Plakophilin-2: MAAPGAPAEYGYIRTVLGQQILGQLDSSSLALPSEAKLKLAGSSGRGGQTVKSLRIQEQVQQTLARKGRSSVGNGNLHRTSSVPEYVYNLHLVENDFVGGRSPVPKTYDMLKAGTTATYEGRWGRGTAQYSSQKSVEERSLRHPLRRLEISPDSSPERAHYTHSDYQYSQRSQAGHTLHHQESRRAALLVPPRYARSEIVGVSRAGTTSRQRHFDTYHRQYQHGSVSDTVFDSIPANPALLTYPRPGTSRSMGNLLEKENYLTAGLTVGQVRPLVPLQPVTQNRASRSSWHQSSFHSTRTLREAGPSVAVDSSGRRAHLTVGQAAAGGSGNLLTERSTFTDSQLGNADMEMTLERAVSMLEADHMLPSRISAAATFIQHECFQKSEARKRVNQLRGILKLLQLLKVQNEDVQRAVCGALRNLVFEDNDNKLEVAELNGVPRLLQVLKQTRDLETKKQITDHTVNLRSRNGWPGAVAHACNPSTLGGQGGRITRSGVRDQPDQHGLLWNLSSNDKLKNLMITEALLTLTENIIIPFSGWPEGDYPKANGLLDFDIFYNVTGCLRNMSSAGADGRKAMRRCDGLIDSLVHYVRGTIADYQPDDKATENCVCILHNLSYQLEAELPEKYSQNIYIQNRNIQTDNNKSIGCFGSRSRKVKEQYQDVPMPEEKSNPKGVEWLWHSIVIRMYLSLIAKSVRNYTQEASLGALQNLTAGSGPMPTSVAQTVVQKESGLQHTRKMLHVGDPSVKKTAISLLRNLSRNLSLQNEIAKETLPDLVSIIPDTVPSTDLLIETTASACYTLNNIIQNSYQNARDLLNTGGIQKIMAISAGDAYASNKASKAASVLLYSLWAHTELHHAYKKAQFKKTDFVNSRTAKAYHSLKD
Difference (log2), untreated vs GFP (GFP-14-3-3β; [3]): 1.704 log2

Difference (log2), PP1 vs untreated [1, 2]: 0.4707 log2
B8: C14orf166 (protein, UniProt Q9Y224 1-244, looked up)
RNA transcription, …: MFRRKLTALDYHNPAGFNCKDETEFRNFIVWLEDQKIRHYKIEDRGNLRNIHSSDWPKFFEKYLRDVNCPFKIQDRQEAIDWLLGLAVRLEYGDNAEKYKDLVPDNSKTADNATKNAEPLINLDVNNPDFKAGVMALANLLQIQRHDDYLVMLKAIRILVQERLTQDAVAKANQTKEGLPVALDKHILGFDTGDAVLNEAAQILRLLHIEELRELQTKINEAIVAVQAIIADPKTDHRLGKVGR
Difference (log2), untreated vs GFP (GFP-14-3-3β; [3]): 1.488 log2

Difference (log2), PP1 vs untreated [1, 2]: 0.4791 log2
B9: RBM39 (protein, UniProt Q14498 2-530, looked up)
RNA-binding protein 39: ADDIDIEAMLEAPYKKDENKLSSANGHEERSKKRKKSKSRSRSHERKRSKSKERKRSRDRERKKSKSRERKRSRSKERRRSRSRSRDRRFRGRYRSPYSGPKFNSAIRGKIGLPHSIKLSRRRSRSKSPFRKDKSPVREPIDNLTPEERDARTVFCMQLAARIRPRDLEEFFSTVGKVRDVRMISDRNSRRSKGIAYVEFVDVSSVPLAIGLTGQRVLGVPIIVQASQAEKNRAAAMANNLQKGSAGPMRLYVGSLHFNITEDMLRGIFEPFGRIESIQLMMDSETGRSKGYGFITFSDSECAKKALEQLNGFELAGRPMKVGHVTERTDASSASSFLDSDELERTGIDLGTTGRLQLMARLAEGTGLQIPPAAQQALQMSGSLAFGAVAEFSFVIDLQTRLSQQTEASALAAAASVQPLATQCFQLSNMFNPQTEEEVGWDTEIKDDVIEECNKHGGVIHIYVDKNSAQGNVYVKCPSIAAAIAAVNALHGRWFAGKMITAAYVPLPTYHNLFPDSMTATQLLVPSRR
Difference (log2), untreated vs GFP (GFP-14-3-3β; [3]): 0.5608 log2

Further lines, the molecule ahead of its results:

B1: PABPC4 (protein, UniProt Q13310 1-644, looked up)
Polyadenylate-binding protein …: MNAAASSYPMASLYVGDLHSDVTEAMLYEKFSPAGPVLSIRVCRDMITRRSLGYAYVNFQQPADAERALDTMNFDVIKGKPIRIMWSQRDPSLRKSGVGNVFIKNLDKSIDNKALYDTFSAFGNILSCKVVCDENGSKGYAFVHFETQEAADKAIEKMNGMLLNDRKVFVGRFKSRKEREAELGAKAKEFTNVYIKNFGEEVDDESLKELFSQFGKTLSVKVMRDPNGKSKGFGFVSYEKHEDANKAVEEMNGKEISGKIIFVGRAQKKVERQAELKRKFEQLKQERISRYQGVNLYIKNLDDTIDDEKLRKEFSPFGSITSAKVMLEDGRSKGFGFVCFSSPEEATKAVTEMNGRIVGSKPLYVALAQRKEERKAHLTNQYMQRVAGMRALPANAILNQFQPAAGGYFVPAVPQAQGRPPYYTPNQLAQMRPNPRWQQGGRPQGFQGMPSAIRQSGPRPTLRHLAPTGSECPDRLAMDFGGAGAAQQGLTDSCQSGGVPTAVQNLAPRAAVAAAAPRAVAPYKYASSVRSPHPAIQPLQAPQPAVHVQGQEPLTASMLAAAPPQEQKQMLGERLFPLIQTMHSNLAGKITGMLLEIDNSELLHMLESPESLRSKVDEAVAVLQAHHAKKEAAQKVGAVAAATS
Difference (log2), PP1 vs untreated [1, 2]: 0.5259 log2
Difference (log2), untreated vs GFP (GFP-14-3-3β; [3]): 2.4022 log2

B3: STT3A (protein, UniProt P46977 1-705, looked up)
Dolichyl-diphosphooligosacchar …: MTKFGFLRLSYEKQDTLLKLLILSMAAVLSFSTRLFAVLRFESVIHEFDPYFNYRTTRFLAEEGFYKFHNWFDDRAWYPLGRIIGGTIYPGLMITSAAIYHVLHFFHITIDIRNVCVFLAPLFSSFTTIVTYHLTKELKDAGAGLLAAAMIAVVPGYISRSVAGSYDNEGIAIFCMLLTYYMWIKAVKTGSICWAAKCALAYFYMVSSWGGYVFLINLIPLHVLVLMLTGRFSHRIYVAYCTVYCLGTILSMQISFVGFQPVLSSEHMAAFGVFGLCQIHAFVDYLRSKLNPQQFEVLFRSVISLVGFVLLTVGALLMLTGKISPWTGRFYSLLDPSYAKNNIPIIASVSEHQPTTWSSYYFDLQLLVFMFPVGLYYCFSNLSDARIFIIMYGVTSMYFSAVMVRLMLVLAPVMCILSGIGVSQVLSTYMKNLDISRPDKKSKKQQDSTYPIKNEVASGMILVMAFFLITYTFHSTWVTSEAYSSPSIVLSARGGDGSRIIFDDFREAYYWLRHNTPEDAKVMSWWDYGYQITAMANRTILVDNNTWNNTHISRVGQAMASTEEKAYEIMRELDVSYVLVIFGGLTGYSSDDINKFLWMVRIGGSTDTGKHIKENDYYTPTGEFRVDREGSPVLLNCLMYKMCYYRFGQVYTEAKRPPGFDRVRNAEIGNKDFELDVLEEAYTTEHWLVRIYKVKDLDNRGLSRT
Difference (log2), PP1 vs untreated [1, 2]: 0.5123 log2
Difference (log2), untreated vs GFP (GFP-14-3-3β; [3]): 0.4915 log2

B4: ATP5C1 (protein, UniProt P36542 26-298, looked up)
ATP synthase F(1) complex …: ATLKDITRRLKSIKNIQKITKSMKMVAAAKYARAERELKPARIYGLGSLALYEKADIKGPEDKKKHLLIGVSSDRGLCGAIHSSIAKQMKSEVATLTAAGKEVMLVGIGDKIRGILYRTHSDQFLVAFKEVGRKPPTFGDASVIALELLNSGYEFDEGSIIFNKFRSVISYKTEEKPIFSLNTVASADSMSIYDDIDADVLQNYQEYNLANIIYYSLKESTTSEQSARMTAMDNASKNASEMIDKLTLTFNRTRQAVITKELIEIISGAAALD
Difference (log2), PP1 vs untreated [1, 2]: 0.4773 log2
Difference (log2), untreated vs GFP (GFP-14-3-3β; [3]): 1.174 log2

B6: DDX5 (protein, UniProt P17844 1-614, looked up)
Probable ATP-dependent RNA …: MSGYSSDRDRGRDRGFGAPRFGGSRAGPLSGKKFGNPGEKLVKKKWNLDELPKFEKNFYQEHPDLARRTAQEVETYRRSKEITVRGHNCPKPVLNFYEANFPANVMDVIARQNFTEPTAIQAQGWPVALSGLDMVGVAQTGSGKTLSYLLPAIVHINHQPFLERGDGPICLVLAPTRELAQQVQQVAAEYCRACRLKSTCIYGGAPKGPQIRDLERGVEICIATPGRLIDFLECGKTNLRRTTYLVLDEADRMLDMGFEPQIRKIVDQIRPDRQTLMWSATWPKEVRQLAEDFLKDYIHINIGALELSANHNILQIVDVCHDVEKDEKLIRLMEEIMSEKENKTIVFVETKRRCDELTRKMRRDGWPAMGIHGDKSQQERDWVLNEFKHGKAPILIATDVASRGLDVEDVKFVINYDYPNSSEDYIHRIGRTARSTKTGTAYTFFTPNNIKQVSDLISVLREANQAINPKLLQLVEDRGSGRSRGRGGMKDDRRDRYSAGKRGGFNTFRDRENYDRGYSSLLKRDFGAKTQNGVYSAANYTNGSFGSNFVSAGIQTSFRTGNPTGTYQNGYDSTQQYGSNVPNMHNGMNQQAYAYPATAAAPMIGYPMPTGYSQ
Difference (log2), PP1 vs untreated [1, 2]: 0.5082 log2
Difference (log2), untreated vs GFP (GFP-14-3-3β; [3]): 0.1802 log2

B10: SLC25A5 (protein, UniProt P05141 1-298, looked up)
ADP/ATP translocase 2: MTDAAVSFAKDFLAGGVAAAISKTAVAPIERVKLLLQVQHASKQITADKQYKGIIDCVVRIPKEQGVLSFWRGNLANVIRYFPTQALNFAFKDKYKQIFLGGVDKRTQFWLYFAGNLASGGAAGATSLCFVYPLDFARTRLAADVGKAGAEREFRGLGDCLVKIYKSDGIKGLYQGFNVSVQGIIIYRAAYFGIYDTAKGMLPDPKNTHIVISWMIAQTVTAVAGLTSYPFDTVRRRMMMQSGRKGTDIMYTGTLDCWRKIARDEGGKAFFKGAWSNVLRGMGGAFVLVLYDEIKKYT
Difference (log2), PP1 vs untreated [1, 2]: 0.4677 log2
Difference (log2), untreated vs GFP (GFP-14-3-3β; [3]): 0.2489 log2
